The target of one data set is T1, integrin α5β1 (human, UniProt P08648 42-995; P05556 21-728, limits assumed).
T1 construct: Immobilised on the SPR chip
Briefly: SPR (ProteOn XPR36); α5β1 integrin immobilized, variant flowed at 1 µM.

Data set [1] concerns the molecule itself. Briefly: BS3 chemical crosslinking, denaturing SDS-PAGE, Coomassie stain; self-association (homodimer).
The target in the next data set is T2, integrin α3β1 (human, UniProt P26006 33-991; P05556 21-728, limits assumed).
T2 construct: Immobilised on the SPR chip
T2 sequence (P26006 33-991 limits assumed, chain 1 of 2): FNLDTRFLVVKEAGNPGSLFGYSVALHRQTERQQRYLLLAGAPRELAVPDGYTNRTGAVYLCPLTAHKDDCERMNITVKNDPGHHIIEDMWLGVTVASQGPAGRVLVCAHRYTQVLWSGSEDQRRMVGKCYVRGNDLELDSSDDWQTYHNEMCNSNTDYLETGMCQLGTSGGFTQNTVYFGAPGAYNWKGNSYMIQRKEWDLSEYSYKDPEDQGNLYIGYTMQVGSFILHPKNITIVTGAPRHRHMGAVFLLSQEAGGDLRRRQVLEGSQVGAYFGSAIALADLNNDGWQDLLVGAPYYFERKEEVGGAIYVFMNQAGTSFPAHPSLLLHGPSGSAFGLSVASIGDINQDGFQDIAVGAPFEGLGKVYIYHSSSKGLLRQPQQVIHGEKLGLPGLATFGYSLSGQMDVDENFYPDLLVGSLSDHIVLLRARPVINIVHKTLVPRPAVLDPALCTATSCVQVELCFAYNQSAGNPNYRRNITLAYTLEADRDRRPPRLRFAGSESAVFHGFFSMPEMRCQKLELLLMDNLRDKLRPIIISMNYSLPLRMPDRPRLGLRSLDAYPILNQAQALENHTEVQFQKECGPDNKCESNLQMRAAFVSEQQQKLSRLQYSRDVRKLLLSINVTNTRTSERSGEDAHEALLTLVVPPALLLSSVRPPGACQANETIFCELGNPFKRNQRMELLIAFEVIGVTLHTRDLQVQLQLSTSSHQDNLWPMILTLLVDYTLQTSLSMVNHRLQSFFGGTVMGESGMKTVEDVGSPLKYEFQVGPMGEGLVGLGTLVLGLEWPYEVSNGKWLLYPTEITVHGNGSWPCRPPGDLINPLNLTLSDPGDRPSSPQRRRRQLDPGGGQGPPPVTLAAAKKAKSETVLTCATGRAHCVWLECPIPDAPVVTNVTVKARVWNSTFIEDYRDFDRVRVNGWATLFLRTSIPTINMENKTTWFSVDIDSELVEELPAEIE
T2 sequence (P05556 21-728 limits assumed, chain 2 of 2): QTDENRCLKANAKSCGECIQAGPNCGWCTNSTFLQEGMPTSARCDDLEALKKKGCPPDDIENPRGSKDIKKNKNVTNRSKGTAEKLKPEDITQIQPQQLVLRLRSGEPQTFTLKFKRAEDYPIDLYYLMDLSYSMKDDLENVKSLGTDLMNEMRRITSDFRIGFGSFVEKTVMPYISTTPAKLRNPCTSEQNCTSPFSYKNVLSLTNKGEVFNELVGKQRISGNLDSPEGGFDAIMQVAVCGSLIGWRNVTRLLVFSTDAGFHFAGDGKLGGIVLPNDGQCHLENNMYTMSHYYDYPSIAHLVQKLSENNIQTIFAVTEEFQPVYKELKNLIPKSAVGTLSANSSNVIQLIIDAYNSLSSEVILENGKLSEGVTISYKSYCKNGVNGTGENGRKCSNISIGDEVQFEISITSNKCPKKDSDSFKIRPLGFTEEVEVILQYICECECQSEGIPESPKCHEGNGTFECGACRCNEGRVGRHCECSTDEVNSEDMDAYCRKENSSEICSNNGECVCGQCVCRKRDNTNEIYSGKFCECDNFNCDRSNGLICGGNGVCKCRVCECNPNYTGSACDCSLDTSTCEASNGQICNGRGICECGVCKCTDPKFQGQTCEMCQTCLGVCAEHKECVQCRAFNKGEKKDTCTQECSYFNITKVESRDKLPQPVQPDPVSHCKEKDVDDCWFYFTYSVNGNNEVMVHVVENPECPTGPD
As to the kind of experiment: SPR (ProteOn XPR36); α3β1 integrin immobilized, variant flowed at 1 µM.

Data set [2] concerns the target T3, soluble human αvβ3 integrin (human, UniProt P06756 31-992; P05106 27-718).
T3 construct: R&D Systems for yeast display; also called integrin αvβ3; recombinant αvβ3 integrin
Briefly: SPR (ProteOn XPR36), variant immobilised, αvβ3 integrin 0-200 nM as analyte, equilibrium.

Data set [3] deals with T4, soluble human c-FMS receptor (extracellular domains, residues Met1-Glu512) (Sino Biological) (human, UniProt P07333 20-512).
T4 construct: range 1-512; Analyte in both SPR experiments; The printed range starts at Met1, so it includes the signal peptide; also called human c-FMS soluble proteins
As to the kind of experiment: SPR (ProteOn XPR36), variant immobilised, c-FMS 0-200 nM as analyte, equilibrium.

Another data set addresses T5, integrin α4β7 (human, UniProt P13612 34-977; P26010 20-723, limits assumed).
T5 construct: Immobilised on the SPR chip
Briefly: SPR (ProteOn XPR36); α4β7 integrin immobilized, variant flowed at 1 µM.

Data set [4] has as its target T4, soluble human c-FMS receptor …. As to the kind of experiment: SPR (ProteOn XPR36), M-CSF protein immobilised, c-FMS (Met1-Glu512) 4.375-70 nM as analyte, equilibrium, N=3.
Data set [5] concerns the molecule itself. As to the kind of experiment: SAXS, radius of gyration against protein concentration; oligomeric state (homodimer) in solution.
The target of data set [6] is T6, soluble Fc conjugated human c-FMS (R&D systems) (human, UniProt P07333 20-512).
T6 construct: Bought reagent; Used in all yeast display experiments; also called c-FMS-Fc; c-FMS-Fc recombinant protein; not shown: Fc (detected with goat anti human Fc)
As to the kind of experiment: yeast surface display, flow cytometry; soluble c-FMS-Fc titrated from 0.5 to 2000 nM. A general note: In flow cytometry, cells or beads pass a laser one at a time.

Data set [7] concerns the target T6, soluble Fc conjugated human c-FMS (R&D …). Briefly: yeast surface display flow cytometry; displayed M-CSFM titrated with c-FMS-Fc (0.5 nM to 2000 nM); apparent KD.
The target in data set [8] is T4, soluble human c-FMS receptor …. As to the kind of experiment: SPR (ProteOn XPR36), M-CSF protein immobilised, c-FMS 0-200 nM as analyte, equilibrium.
Data set [9] concerns the molecule itself. Briefly: BS3 chemical crosslinking, SDS-PAGE, InstantBlue stain; self-association (homodimer).
Data set [10] concerns the target T4, soluble human c-FMS receptor …. As to the kind of experiment: SPR (ProteOn XPR36), M-CSF protein immobilised, c-FMS (Met1-Glu512) as analyte, equilibrium, N=3.
For data set [11], the target named is T3, soluble human αvβ3 integrin. Briefly: SPR (ProteOn XPR36); variant immobilized by amine coupling, soluble αvβ3 integrin flowed at 12.5 to 200 nM; panel assigned to M-CSFM although the legend prints '9A and 9E'.
Data set [12] has as its target T7, murine c-FMS on bone marrow derived monocytes (BMMs) (mouse, UniProt P09581 20-977).
T7 sequence (looked up): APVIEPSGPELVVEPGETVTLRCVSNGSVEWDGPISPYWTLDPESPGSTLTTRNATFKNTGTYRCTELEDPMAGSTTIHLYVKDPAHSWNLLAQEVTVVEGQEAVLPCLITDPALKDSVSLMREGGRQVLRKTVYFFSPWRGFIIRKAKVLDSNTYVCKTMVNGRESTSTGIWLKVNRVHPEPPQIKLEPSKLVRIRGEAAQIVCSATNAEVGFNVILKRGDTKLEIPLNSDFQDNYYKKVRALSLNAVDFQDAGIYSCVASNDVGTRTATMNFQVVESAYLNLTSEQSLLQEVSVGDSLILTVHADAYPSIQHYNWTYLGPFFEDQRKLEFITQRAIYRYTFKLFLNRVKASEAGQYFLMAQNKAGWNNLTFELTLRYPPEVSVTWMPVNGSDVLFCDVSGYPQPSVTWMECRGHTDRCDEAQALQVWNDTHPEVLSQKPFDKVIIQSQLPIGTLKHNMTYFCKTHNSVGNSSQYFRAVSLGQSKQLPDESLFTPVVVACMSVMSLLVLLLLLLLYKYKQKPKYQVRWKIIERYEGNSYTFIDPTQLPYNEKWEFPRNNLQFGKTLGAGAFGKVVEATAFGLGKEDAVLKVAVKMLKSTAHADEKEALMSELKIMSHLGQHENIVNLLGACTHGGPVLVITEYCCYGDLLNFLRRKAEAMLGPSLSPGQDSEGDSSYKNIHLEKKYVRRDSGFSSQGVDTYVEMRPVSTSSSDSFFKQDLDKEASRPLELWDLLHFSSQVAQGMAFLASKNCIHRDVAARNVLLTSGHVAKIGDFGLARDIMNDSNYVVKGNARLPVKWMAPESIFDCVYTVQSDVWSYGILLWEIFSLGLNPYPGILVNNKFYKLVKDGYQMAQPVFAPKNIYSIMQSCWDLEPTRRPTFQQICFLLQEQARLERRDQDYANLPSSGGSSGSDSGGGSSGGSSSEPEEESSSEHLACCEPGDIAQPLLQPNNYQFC
Briefly: cell-based or functional assay.

Data set [13] concerns the molecule itself. Briefly: BS3 chemical crosslinking, denaturing SDS-PAGE, Coomassie stain; self-association (homodimer). The source holds these as a separate data set.
For data set [14], the target named is T3, soluble human αvβ3 integrin. As to the kind of experiment: SPR (ProteOn XPR36), M-CSFαvβ3 immobilised, αvβ3 integrin 0-200 nM as analyte, equilibrium.

The EC50 (read off the curve) is the concentration giving half of the maximal effect.

T3 sequence (P06756 31-992 limits assumed, chain 1 of 2): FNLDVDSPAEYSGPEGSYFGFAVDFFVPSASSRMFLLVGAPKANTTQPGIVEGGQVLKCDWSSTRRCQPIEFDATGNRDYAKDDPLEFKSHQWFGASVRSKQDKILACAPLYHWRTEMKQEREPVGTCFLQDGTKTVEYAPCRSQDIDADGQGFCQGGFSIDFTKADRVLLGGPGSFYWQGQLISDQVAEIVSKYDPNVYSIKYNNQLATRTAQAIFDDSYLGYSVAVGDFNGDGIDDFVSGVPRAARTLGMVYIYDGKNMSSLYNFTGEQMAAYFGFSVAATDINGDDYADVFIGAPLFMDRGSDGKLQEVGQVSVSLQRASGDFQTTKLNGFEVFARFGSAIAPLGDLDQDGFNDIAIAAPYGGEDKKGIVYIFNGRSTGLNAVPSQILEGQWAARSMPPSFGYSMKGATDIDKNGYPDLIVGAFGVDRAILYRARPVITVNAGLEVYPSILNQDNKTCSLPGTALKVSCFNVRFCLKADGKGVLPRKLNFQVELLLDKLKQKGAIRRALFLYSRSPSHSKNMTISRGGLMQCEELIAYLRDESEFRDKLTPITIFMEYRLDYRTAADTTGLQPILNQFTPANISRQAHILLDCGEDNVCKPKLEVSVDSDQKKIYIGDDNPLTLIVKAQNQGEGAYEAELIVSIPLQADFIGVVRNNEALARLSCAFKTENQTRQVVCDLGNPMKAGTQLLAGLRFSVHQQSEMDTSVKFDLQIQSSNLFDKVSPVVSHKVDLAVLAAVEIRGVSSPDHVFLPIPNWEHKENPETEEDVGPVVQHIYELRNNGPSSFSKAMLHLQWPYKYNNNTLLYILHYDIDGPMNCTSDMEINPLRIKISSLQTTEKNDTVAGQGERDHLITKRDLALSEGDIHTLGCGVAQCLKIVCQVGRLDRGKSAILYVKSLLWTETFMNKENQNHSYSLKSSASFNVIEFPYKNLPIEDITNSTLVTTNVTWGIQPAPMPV
T3 sequence (P05106 27-718 limits assumed, chain 2 of 2): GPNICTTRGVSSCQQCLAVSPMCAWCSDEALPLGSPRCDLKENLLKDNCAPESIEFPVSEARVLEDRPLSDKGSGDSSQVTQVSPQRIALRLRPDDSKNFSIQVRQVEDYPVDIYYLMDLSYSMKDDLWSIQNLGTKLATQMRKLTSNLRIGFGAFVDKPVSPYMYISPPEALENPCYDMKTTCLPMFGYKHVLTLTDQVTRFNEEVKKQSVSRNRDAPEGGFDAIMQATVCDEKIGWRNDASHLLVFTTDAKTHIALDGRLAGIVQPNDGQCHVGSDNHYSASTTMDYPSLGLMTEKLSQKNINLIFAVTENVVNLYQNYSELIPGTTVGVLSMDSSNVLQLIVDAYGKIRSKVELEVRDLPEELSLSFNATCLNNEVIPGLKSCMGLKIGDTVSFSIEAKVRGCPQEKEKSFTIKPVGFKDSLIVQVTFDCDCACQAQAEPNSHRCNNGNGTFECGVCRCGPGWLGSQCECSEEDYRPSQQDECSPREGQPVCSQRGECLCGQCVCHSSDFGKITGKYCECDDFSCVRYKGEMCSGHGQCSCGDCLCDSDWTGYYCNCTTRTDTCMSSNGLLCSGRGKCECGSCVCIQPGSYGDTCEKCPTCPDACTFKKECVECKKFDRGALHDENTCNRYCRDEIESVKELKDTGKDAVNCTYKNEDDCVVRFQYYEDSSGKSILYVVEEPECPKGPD
T5 sequence (P13612 34-977 limits assumed, chain 1 of 2): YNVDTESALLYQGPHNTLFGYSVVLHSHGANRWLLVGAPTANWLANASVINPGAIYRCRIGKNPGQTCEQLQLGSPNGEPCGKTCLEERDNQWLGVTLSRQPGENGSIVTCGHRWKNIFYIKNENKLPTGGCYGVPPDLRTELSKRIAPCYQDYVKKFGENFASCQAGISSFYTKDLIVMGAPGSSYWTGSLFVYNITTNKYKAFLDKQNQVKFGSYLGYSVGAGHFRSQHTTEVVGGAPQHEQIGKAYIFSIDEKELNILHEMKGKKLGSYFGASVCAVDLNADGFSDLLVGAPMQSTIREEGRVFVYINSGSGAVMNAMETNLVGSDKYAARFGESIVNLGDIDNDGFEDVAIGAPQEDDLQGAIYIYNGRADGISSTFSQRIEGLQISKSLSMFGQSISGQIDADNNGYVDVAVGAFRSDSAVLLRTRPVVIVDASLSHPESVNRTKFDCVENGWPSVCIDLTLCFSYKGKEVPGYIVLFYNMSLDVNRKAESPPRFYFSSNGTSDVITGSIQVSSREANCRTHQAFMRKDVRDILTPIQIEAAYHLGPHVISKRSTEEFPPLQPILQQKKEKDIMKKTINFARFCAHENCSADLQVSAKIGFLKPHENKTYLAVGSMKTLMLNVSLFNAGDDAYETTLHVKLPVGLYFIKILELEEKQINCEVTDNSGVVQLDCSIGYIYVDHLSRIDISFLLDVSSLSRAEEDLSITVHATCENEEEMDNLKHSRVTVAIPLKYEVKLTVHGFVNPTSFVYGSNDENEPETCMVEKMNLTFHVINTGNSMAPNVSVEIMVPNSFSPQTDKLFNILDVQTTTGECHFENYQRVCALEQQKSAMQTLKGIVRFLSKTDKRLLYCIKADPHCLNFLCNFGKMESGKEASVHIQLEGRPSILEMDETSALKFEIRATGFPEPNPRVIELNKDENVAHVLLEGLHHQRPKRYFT
T5 sequence (P26010 20-723 limits assumed, chain 2 of 2): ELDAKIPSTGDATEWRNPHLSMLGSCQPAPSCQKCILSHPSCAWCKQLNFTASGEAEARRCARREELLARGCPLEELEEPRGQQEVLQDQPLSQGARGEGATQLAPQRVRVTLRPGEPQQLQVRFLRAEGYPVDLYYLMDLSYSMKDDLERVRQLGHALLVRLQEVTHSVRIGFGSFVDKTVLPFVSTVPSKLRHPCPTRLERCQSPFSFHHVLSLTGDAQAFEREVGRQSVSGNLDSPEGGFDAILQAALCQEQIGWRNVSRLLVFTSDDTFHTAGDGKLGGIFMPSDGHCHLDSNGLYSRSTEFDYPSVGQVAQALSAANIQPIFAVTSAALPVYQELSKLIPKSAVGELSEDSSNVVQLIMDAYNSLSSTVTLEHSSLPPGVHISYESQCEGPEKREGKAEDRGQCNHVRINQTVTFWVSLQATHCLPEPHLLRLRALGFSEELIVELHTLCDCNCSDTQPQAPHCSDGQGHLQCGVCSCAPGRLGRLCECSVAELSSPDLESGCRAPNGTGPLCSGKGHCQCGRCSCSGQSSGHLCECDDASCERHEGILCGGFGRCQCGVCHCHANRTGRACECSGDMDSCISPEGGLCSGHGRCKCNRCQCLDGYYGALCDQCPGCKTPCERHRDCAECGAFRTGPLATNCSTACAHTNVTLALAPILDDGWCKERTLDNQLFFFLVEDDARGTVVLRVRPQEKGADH

B1: M-CSFRGD variant 4.24, purified soluble, non-glycosylated (designed binder)
chain: EEVSEYCSHMIGSGHLQSLQRLIDSQMETSSQITFEFVDQEQLKDPVCYLKKAFLLVQDIMEDEPVRGDNINPNAIAIVQLQELSLRLKSCFTKDYEEHDKACVRTFYETPLQLLEKVKNVFNETKNLLDKDWNIFSKNCNNSFAECSSQGHERQSEGS
modifications: N-glycans removed with Endo HF (non-glycosylated)
notes: not shown: FLAG tag at the N-terminus of the cloning site (pPIC9K); 6xHis tag at the C-terminus of the cloning site
With B1, the binding result is “no binding (tested: 1 µM)” in the data set with integrin α5β1, “no binding” in [1], “no binding (tested: 1 µM)” with integrin α3β1 and “no binding (tested: 1 µM)” with integrin α4β7. Moreover, the Kd is 108 nM in data set [2] and 219 nM in data set [3].

B2: human wild-type M-CSF (M-CSFWT) (ligand)
chain: EEVSEYCSHMIGSGHLQSLQRLIDSQMETSCQITFEFVDQEQLKDPVCYLKKAFLLVQDIMEDTMRFRDNTPNAIAIVQLQELSLRLKSCFTKDYEEHDKACVRTFYETPLQLLEKVKNVFNETKNLLDKDWNIFSKNCNNSFAECSSQGHERQSEGS
notes: also called human M-CSFWT
B2 displayed a Kd in data set [4] of 25.1 nM. In [5], the binding result is reported as “binds”.

B3: M-CSFM displayed on the yeast surface (YSD M-CSFM) (ligand)
chain: EEVSEYCSHMIGSGHLQSLQRLIDSQMETSSQITFEFVDQEQLKDPVCYLKKAFLLVQDIMEDTMRFRDNTPNAIAIVQLQELSLRLKSCFTKDYEEHDKACVRTFYETPLQLLEKVKNVFNETKNLLDKDWNIFSKNCNNSFAECSSQGHERQSEGS
notes: also called M-CSF monomer; not shown: yeast surface display fusion partner (pCTCON construct on the S. cerevisiae cell wall, with c-myc tag)
Take B3: the “EC50 (read off the curve)” value in [6] is around 20 nM. Also, the Kd in data set [7] stood at 20 nM.

B4: glycosylated M-CSFM, purified soluble (ligand)
chain: EEVSEYCSHMIGSGHLQSLQRLIDSQMETSSQITFEFVDQEQLKDPVCYLKKAFLLVQDIMEDTMRFRDNTPNAIAIVQLQELSLRLKSCFTKDYEEHDKACVRTFYETPLQLLEKVKNVFNETKNLLDKDWNIFSKNCNNSFAECSSQGHERQSEGS
modifications: N-glycosylated (two glycosylation sites in positions 122 and 140)
notes: Pichia pastoris product without Endo HF treatment; not shown: FLAG tag at the N-terminus of the cloning site (pPIC9K); 6xHis tag at the C-terminus of the cloning site
B4: the Kd in data set [8] came out at 42.6 nM.

B5: M-CSFC31S,M27R (designed binder)
chain: EEVSEYCSHMIGSGHLQSLQRLIDSQRETSSQITFEFVDQEQLKDPVCYLKKAFLLVQDIMEDTMRFRDNTPNAIAIVQLQELSLRLKSCFTKDYEEHDKACVRTFYETPLQLLEKVKNVFNETKNLLDKDWNIFSKNCNNSFAECSSQGHERQSEGS
notes: monomer; Purified from Pichia pastoris GS115; also called M-CSFM,M27R; M-CSF double mutant
In the case of B5, in data set [9], the binding result was “no binding”. Also, the Kd in [10] amounted to 61.5 nM.

B6: M-CSFM, purified soluble, non-glycosylated (M-CSFC31S) (ligand)
chain: EEVSEYCSHMIGSGHLQSLQRLIDSQMETSSQITFEFVDQEQLKDPVCYLKKAFLLVQDIMEDTMRFRDNTPNAIAIVQLQELSLRLKSCFTKDYEEHDKACVRTFYETPLQLLEKVKNVFNETKNLLDKDWNIFSKNCNNSFAECSSQGHERQSEGS
modifications: N-glycans removed with Endo HF (non-glycosylated)
notes: Expressed in Pichia pastoris GS115; Forms non-covalent dimers; also called non-glycosylated M-CSFM; M-CSF monomer; not shown: FLAG tag at the N-terminus of the cloning site (pPIC9K); 6xHis tag at the C-terminus of the cloning site
For B6, the binding result is reported as “no binding (tested: 200 nM)” in [11] and “binds” in data set [9]. Besides, in data set [12], the “c-FMS phosphorylation at the peak concentration, fold against M-CSFWT” value was 10 fold. Also, the “c-FMS phosphorylation at the peak concentration, fold against the positive control (0.5 nM murine M-CSF)” value in [12] worked out at 40 fold. This molecule showed a Kd in data set [8] of 31.6 nM.

B7: M-CSFRGD variant 4.22, purified soluble, non-glycosylated (designed binder)
chain: EEVSEYCSHMIGSGHLQSLQRLIDQTSRGDSPSITFEFVDQEQLKDPVCYLKKAFLLVQDIMEDTMRFRDNTPNAIAIVQLQELSLRLKSCFTKDYEEHDKACVRTFYETPLQLLEKVKNVFNETKNLLDKDWNIFSKNCNNSFAECSSQGHERQSEGS
modifications: N-glycans removed with Endo HF (non-glycosylated). Labelled with DyLight 488 NHS ester on amines for the cell binding assays. Amine-coupled to the chip for SPR.
notes: Pichia pastoris product; 21.7 kDa by MS; not shown: N-terminal FLAG tag, C-terminal 6xHis tag and the vector junction residues (pPIC9K cloning site)
With B7, the binding result in [13] was “no binding”; with integrin α5β1, “no binding (tested: 1 µM)”; in the data set with integrin α3β1, “no binding (tested: 1 µM)”; in the data set with integrin α4β7, “no binding (tested: 1 µM)”. Besides, the Kd in data set [2] was determined as 199 nM; in data set [3], 152 nM.

B8: M-CSFRGD variant 5.6, purified soluble, non-glycosylated (designed binder)
chain: EEVSEYCSHMIGSGHLQSLQRLIDTYPRGDMCSITFEFVDQEQLKDPVCYLKKAFLLVQDIMEDTMRFRDNTPNAIAIVQLQELSLRLKSCFTKDYEEHDKACVRTFYETPLQLLEKVKNVFNETKNLLDKDWNIFSKNCNNSFAECSSQGHERQSEGS
modifications: N-glycans removed with Endo HF (non-glycosylated). Labelled with DyLight 488 NHS ester on amines for the cell binding assays. Amine-coupled to the chip for SPR.
notes: Pichia pastoris product; 22 kDa by MS; also called M-CSFRGD 5.6; M-CSF5.6; not shown: N-terminal FLAG tag, C-terminal 6xHis tag and the vector junction residues (pPIC9K cloning site)
As to B8, the binding result in the data set with integrin α5β1 was “no binding (tested: 1 µM)”; in data set [1], “no binding”; in the data set with integrin α3β1, “no binding (tested: 1 µM)”; with integrin α4β7, “no binding (tested: 1 µM)”. The figures for the Kd in [2] and in data set [3] were 245 nM and 96 nM, respectively.

B9: M-CSFαvβ3 (variant 4.22 with histidine to alanine in positions 9 and 15), purified soluble (designed binder, not shown: small tags and cut ends)
chain: EEVSEYCSAMIGSGALQSLQRLIDQTSRGDSPSITFEFVDQEQLKDPVCYLKKAFLLVQDIMEDTMRFRDNTPNAIAIVQLQELSLRLKSCFTKDYEEHDKACVRTFYETPLQLLEKVKNVFNETKNLLDKDWNIFSKNCNNSFAECSSQGHERQSEGS
modifications: Expressed in Pichia with an N-terminal FLAG tag and a C-terminal 6xHis tag, neither of which is in the letters. N-glycans were removed with Endo HF.
Turning to B9, the Kd in data set [14] is 231 nM.

For the origin of these results see patent US20210403514A1 (NATIONAL INSTITUTE FOR BIOTECHNOLOGY IN THE NEGEV, published 2021).
